Test results: patent US20170165365A1 (SYMPHOGEN A S, published 2017)
Where a chain is given by its changes, count along the chain named.

T1: human HER4 antigen (human, UniProt Q15303 26-649, limits assumed)
T1 construct: Antigen coated for ELISA
T1 sequence (looked up): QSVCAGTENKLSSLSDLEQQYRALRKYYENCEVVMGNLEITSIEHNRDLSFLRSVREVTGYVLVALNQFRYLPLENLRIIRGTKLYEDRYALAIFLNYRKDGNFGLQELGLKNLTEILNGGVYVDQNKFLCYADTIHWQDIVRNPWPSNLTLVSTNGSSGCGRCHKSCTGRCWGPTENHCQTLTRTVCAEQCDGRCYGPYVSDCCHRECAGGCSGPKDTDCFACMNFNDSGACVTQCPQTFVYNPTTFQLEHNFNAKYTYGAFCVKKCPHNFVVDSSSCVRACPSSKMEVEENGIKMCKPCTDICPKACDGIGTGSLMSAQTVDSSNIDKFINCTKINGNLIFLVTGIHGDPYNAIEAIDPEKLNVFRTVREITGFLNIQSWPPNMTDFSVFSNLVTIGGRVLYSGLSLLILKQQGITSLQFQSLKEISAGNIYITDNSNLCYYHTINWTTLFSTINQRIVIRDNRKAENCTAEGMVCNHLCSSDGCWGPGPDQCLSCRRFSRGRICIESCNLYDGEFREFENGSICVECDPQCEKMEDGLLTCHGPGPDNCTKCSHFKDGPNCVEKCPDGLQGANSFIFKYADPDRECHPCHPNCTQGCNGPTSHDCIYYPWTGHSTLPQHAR

T2: murine HER4 antigen (mouse, UniProt Q61527 26-652, limits assumed)
T2 construct: In-house antigen coated for ELISA; also called mouse HER4
T2 sequence (looked up): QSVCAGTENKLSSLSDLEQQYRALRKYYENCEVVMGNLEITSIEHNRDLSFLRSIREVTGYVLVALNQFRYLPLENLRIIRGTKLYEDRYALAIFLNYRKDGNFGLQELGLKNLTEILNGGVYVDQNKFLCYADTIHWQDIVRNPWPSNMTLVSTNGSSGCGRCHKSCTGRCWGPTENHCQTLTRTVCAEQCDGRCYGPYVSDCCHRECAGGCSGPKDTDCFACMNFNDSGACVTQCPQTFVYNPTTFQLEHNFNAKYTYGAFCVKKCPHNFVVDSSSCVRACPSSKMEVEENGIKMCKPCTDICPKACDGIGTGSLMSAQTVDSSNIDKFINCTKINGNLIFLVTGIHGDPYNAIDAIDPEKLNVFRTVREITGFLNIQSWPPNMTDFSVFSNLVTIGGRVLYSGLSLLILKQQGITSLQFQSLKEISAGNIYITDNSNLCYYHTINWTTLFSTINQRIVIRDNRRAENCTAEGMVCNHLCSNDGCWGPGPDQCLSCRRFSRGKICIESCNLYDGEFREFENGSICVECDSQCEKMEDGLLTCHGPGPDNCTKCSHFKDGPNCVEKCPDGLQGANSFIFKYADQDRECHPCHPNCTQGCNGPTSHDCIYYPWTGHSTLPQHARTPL

B1: chimeric anti-HER3 antibody 5038 (antibody, V domains shown)
VH: EVKLVESGPGLVKPSQSLSLTCSVTGYSITSGFYWTWIRQFPGNKLEWMGFISYDGSNNYNPSLKNRISITRDTSKNQFFLKLNSVTTEDTATYYCARGGGYYGNLFDYWGQGTTLTVS
VL: DIVMTQTTSSLSASLGDRVTISCRPSQDISNYVNWFQQKPGGTVKLLIFHTSRLHSGVPSRFSGSGSGTDYSLTISTLEQEDIAIYFCQQGITLPWTFGGGTKLEIKR
notes: light chain entry is full length
B2: chimeric anti-HER3 antibody 5082 (antibody, V domains shown)
VH: EVQLKESGPGLVKPSQSLSLTCSVTGYSITSAYYWNWIRQFPGNKVEWMGYIGYDGRNTYNPSLKNRISITRDTSKNQFFLKLNSLTTEDTATYYCSREGDYGYSDYWGQGTTLTVS
VL: DIVMTQATSSLSASLGDRVTVSCRASQDINNYLNWYQQKPDGTVKLLIYYTSRLQSGVPSRFSGSGSGIDYSLTISNLEQEDFVTYFCQQSETLPWTFGGGTKLELKR
notes: as for B1
B3: humanized anti-HER3 antibody 10738 (antibody, V domains shown)
VH: QVQLQESGPGLVKPSQTLSLTCTVSGYSITSGFYWTWIRQHPGKGLEWMGFISYSGSNNYNPSLKNRITISVDTSKNQFSLKLSSVTAADTAVYYCARGGGYYGNLFDYWGQGTLVTVSS
VL: DIQMTQSPSSLSASVGDRVTITCRPSQDISNYVNWFQQKPGKAVKLLIFHTSRLHSGVPSRFSGSGSGTDFTFTISSLQPEDIAIYYCQQGITLPWTFGQGTKVEIK
B4: humanized anti-HER3 antibody 10810 (antibody, V domains shown)
VH: B3 VH with K44N, M49I, I68V, V93T
VL: B3 VL with V44P, F73L, I85T
B5: humanized anti-EGFR antibody 10460 (antibody, V domains shown)
VH: EVQLVESGGGLVQPGGSLRLSCAASGFAFSYSDMSWVRQAPGKRLEWVSYMSSAGDVTFYSDTVKGRFTISRDNAKNSLYLQVNSLRAEDTAVYYCVRHRDVAIDYWGQGTTVTVSS
VL: DVVMTQSPLSLPVTLGQPASISCRSSQSLVHSNGNTYLHWYQQRPGQSPRLLIYKVSNRFSGVPDRFSGSGSGTDFTLKISRVEAEDVGVYFCSQSTHVPTFGGGTKLEIK
B6: humanized anti-HER3 antibody 11006 (antibody, V domains shown)
VH: QVQLQESGPGLVKPSQTLSLTCTVSGYSITSAYYWNWIRQHPGKGVEWMGYIGYSGRNTYNPSLKNRVTISRDTSKNQFSLKLSSVTAADTAVYYCSREGDYGYSDYWGQGTLVTVSS
VL: DIQMTQSPSSLSASVGDRVTVTCRASQDTNNYLNWYQQKPGKAVKLLIYYTSRLQSGVPSRFSGSGSGTDFTLTISSLQPEDFATYFCQQSETLPWTFGQGTKVEIK

Each binder was assayed against T3, mouse HER2 antigen (mouse, UniProt P70424 23-653, limits assumed) (assay: ELISA, coated mu HER2).
T3 construct: In-house antigen coated for ELISA; also called mouse antigen; murine HER2
T3 sequence (P70424 23-653 limits assumed): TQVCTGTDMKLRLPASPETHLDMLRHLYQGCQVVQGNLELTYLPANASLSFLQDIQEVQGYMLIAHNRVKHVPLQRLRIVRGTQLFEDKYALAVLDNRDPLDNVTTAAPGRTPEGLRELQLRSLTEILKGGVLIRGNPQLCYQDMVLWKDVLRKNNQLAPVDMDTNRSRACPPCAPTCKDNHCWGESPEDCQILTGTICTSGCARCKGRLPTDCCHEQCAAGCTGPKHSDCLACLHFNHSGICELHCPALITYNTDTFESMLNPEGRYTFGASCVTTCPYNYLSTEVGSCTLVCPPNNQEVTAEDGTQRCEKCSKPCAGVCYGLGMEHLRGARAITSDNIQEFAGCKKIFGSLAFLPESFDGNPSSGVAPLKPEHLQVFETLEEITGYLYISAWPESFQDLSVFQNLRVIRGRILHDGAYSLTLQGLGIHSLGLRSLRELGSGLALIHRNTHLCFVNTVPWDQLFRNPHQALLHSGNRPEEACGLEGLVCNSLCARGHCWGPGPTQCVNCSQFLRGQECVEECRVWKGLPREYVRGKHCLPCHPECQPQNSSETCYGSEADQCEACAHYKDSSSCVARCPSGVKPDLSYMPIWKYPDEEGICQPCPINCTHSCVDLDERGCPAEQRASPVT
Protocol: (§1) Antibody-antigen binding was measured by ELISA with coated antigens. Human antigens were obtained from Sino Biologicals. All other antigens were produced in-house by transient expression in CHO or HEK293 cells. Chimeric and humanized antibodies, as well as an isotype control antibody, were incubated with the coated antigens at different concentrations. After wash, bound antibodies were detected by HRP-(horse radish peroxidase)-conjugated secondary antibodies.
B1: no binding (tested: 40 nM). B2: no binding (tested: 40 nM). B3: no binding (tested: 40 nM). B4: no binding (tested: 40 nM). B5: no binding (tested: 40 nM). B6: no binding (tested: 40 nM).

Each binder was assayed against T4, mouse EGFR antigen (mouse, UniProt Q01279 25-647, limits assumed) (assay: ELISA, coated mu EGFR).
T4 construct: In-house antigen coated for ELISA; also called mouse antigen; murine EGFR
Protocol: as §1
B1: no binding (tested: 40 nM). B2: no binding (tested: 40 nM). B3: no binding (tested: 40 nM). B4: no binding (tested: 40 nM). B5: no binding (tested: 40 nM). B6: no binding (tested: 40 nM).

The binders below were run against T5, human HER3 antigen (Sino Biologicals) (human, UniProt P21860 20-643) (assay: ELISA, coated hu HER3).
T5 construct: Bought soluble antigen; also called human antigen
Protocol: as §1
B5: no binding (tested: 40 nM).

The binders below were run against T6, cynomolgus EGFR antigen (cynomolgus monkey, UniProt A0A2K5WK39 25-645) (assay: ELISA, coated cy EGFR).
T6 construct: In-house antigen; also called cynomolgus antigen
Protocol: as §1
B1: no binding (tested: 40 nM). B2: no binding (tested: 40 nM). B3: no binding (tested: 40 nM). B4: no binding (tested: 40 nM). B6: no binding (tested: 40 nM).

The binders below were run against T1, human HER4 antigen (assay: ELISA, coated hu HER4).
Protocol: as §1
B1: no binding (tested: 40 nM). B2: no binding (tested: 40 nM). B3: no binding (tested: 40 nM). B4: no binding (tested: 40 nM). B5: no binding (tested: 40 nM). B6: no binding (tested: 40 nM).

What follows are binders tested against T7, human HER2 antigen (Sino Biologicals) (human, UniProt P04626 23-652) (assay: ELISA, coated hu HER2).
T7 construct: Bought soluble antigen; also called human antigen
Protocol: as §1
B1: no binding (tested: 40 nM). B2: no binding (tested: 40 nM). B3: no binding (tested: 40 nM). B4: no binding (tested: 40 nM). B5: no binding (tested: 40 nM). B6: no binding (tested: 40 nM).

These binders were tested against T8, cynomolgus HER3 antigen (cynomolgus monkey, UniProt G7PIG5 20-643) (assay: ELISA, coated cy HER3).
T8 construct: In-house antigen; also called cynomolgus antigen
T8 sequence (G7PIG5 entry or part of it): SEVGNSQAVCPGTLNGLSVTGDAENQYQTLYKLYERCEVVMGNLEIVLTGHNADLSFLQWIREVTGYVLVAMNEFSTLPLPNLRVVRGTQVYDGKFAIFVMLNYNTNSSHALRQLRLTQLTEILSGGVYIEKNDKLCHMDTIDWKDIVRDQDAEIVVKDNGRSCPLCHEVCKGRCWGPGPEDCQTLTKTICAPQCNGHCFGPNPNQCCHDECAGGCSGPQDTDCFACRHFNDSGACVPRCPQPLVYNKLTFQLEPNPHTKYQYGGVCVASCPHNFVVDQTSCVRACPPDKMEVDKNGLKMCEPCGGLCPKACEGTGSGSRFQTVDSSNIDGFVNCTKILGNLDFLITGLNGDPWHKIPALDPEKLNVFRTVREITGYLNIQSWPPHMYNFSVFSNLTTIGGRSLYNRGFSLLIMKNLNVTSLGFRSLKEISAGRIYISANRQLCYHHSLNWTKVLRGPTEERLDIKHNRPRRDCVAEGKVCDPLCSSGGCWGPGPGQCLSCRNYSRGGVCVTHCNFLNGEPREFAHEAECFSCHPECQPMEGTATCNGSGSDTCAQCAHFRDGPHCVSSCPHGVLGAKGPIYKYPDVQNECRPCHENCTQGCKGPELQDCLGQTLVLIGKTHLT
Protocol: as §1
B5: no binding (tested: 40 nM).

Each binder was assayed against T9, mouse HER3 antigen (mouse, UniProt Q61526 20-641, limits assumed) (assay: ELISA, coated mu HER3).
T9 construct: In-house antigen coated for ELISA; also called mouse antigen; murine HER3
T9 sequence (Q61526 20-641 limits assumed): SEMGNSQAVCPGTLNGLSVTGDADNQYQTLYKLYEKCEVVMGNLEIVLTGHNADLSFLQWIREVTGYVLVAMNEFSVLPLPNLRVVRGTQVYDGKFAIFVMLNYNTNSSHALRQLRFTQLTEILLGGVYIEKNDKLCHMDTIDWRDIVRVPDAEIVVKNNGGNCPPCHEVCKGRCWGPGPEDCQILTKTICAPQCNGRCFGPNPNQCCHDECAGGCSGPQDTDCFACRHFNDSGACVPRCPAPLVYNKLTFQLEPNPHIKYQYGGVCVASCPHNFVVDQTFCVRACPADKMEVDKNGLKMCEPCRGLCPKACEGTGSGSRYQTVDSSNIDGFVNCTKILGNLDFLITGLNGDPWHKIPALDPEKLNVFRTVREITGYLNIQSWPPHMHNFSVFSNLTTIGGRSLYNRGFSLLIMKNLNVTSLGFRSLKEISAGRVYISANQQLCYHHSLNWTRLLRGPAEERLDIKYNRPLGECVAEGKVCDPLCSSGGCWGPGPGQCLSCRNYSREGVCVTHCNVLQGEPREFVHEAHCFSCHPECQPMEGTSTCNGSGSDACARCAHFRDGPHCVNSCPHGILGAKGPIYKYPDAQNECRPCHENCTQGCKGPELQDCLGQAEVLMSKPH
Protocol: as §1
B1: no binding (tested: 40 nM). B2: no binding (tested: 40 nM). B3: no binding (tested: 40 nM). B4: no binding (tested: 40 nM). B5: no binding (tested: 40 nM). B6: no binding (tested: 40 nM).

What follows are binders tested against T5, human HER3 antigen (Sino Biologicals) (assay: SPR (ProteOn XPR36), IgG captured by anti-human Fc, soluble monovalent antigen, 1:1 fit).
Protocol: (§2) Kinetic binding analysis of the purified humanized variants was performed on a ProteOn™ XPR36 biosensor (BioRad, USA) employing an IgG capture assay as described by Canziani et al. (Anal. Biochem. (2004) 325:301-307) that allows for measurement of antibody affinities of whole IgG molecules against soluble antigen under monovalent conditions. Briefly, approximately 5000 resonance units (RU) of a monoclonal mouse anti-human IgG Fc antibody (GE Healthcare, Denmark) was conjugated to a GLC chip surface (BioRad, USA) according to the manufacturer's instructions, followed by capture of individual antibodies of the invention or a negative control on the anti-Fc sensor surface. […] Next, 250 μl monovalent antigen (Sino Biologicals) was injected at a flow rate of 50 μl/min in serial threefold dilutions from 100 nM stock to generate response curves. The chip surface was regenerated between cycles by stripping the captured antibody/antigen complexes off the surface with a 10-second injection of 3 M MgCl₂ (GE Healthcare, Denmark) repeated three times. Finally, binding responses were fitted to a Langmuir 1:1 binding model for calculation of the on-rate (kon or ka), off-rate (koff or kd) and affinity (KD) constants using double referencing.
Binder B1 has a Kd of 1.6 nM, a koff of 0.00048 s⁻¹ and a kon of 300000 M⁻¹ s⁻¹. In the case of B2, the Kd is reported as 0.08 nM, the koff is reported as 7.3e-05 s⁻¹ and the kon is reported as 910000 M⁻¹ s⁻¹. With B4 the Kd was 1.1 nM, the koff was 0.0002 s⁻¹ and the kon was 190000 M⁻¹ s⁻¹. Work on B6 yielded a koff of under 2e-06 s⁻¹ and a kon of 740000 M⁻¹ s⁻¹.

What follows are binders tested against T8, cynomolgus HER3 antigen in the same assay as above.
Protocol: as §2
Work on B1 yielded a Kd of 0.89 nM, a koff of 0.00041 s⁻¹ and a kon of 460000 M⁻¹ s⁻¹. B2 gave a Kd of 0.098 nM, a koff of 0.00016 s⁻¹ and a kon of 1.7e+06 M⁻¹ s⁻¹. B3 was tested, and the Kd was 0.54 nM. B4 gave a Kd of 0.71 nM, a koff of 0.00034 s⁻¹ and a kon of 470000 M⁻¹ s⁻¹. B6 was tested, and the Kd was 0.059 nM, the koff was 8.7e-05 s⁻¹ and the kon was 1.5e+06 M⁻¹ s⁻¹.

These binders were tested against T10, human EGFR antigen (Sino Biologicals) (human, UniProt P00533 25-645) (assay: ELISA, coated hu EGFR).
T10 construct: Bought soluble antigen; also called human antigen
Protocol: as §1
B1: no binding (tested: 40 nM). B2: no binding (tested: 40 nM). B3: no binding (tested: 40 nM). B4: no binding (tested: 40 nM). B6: no binding (tested: 40 nM).

Each binder was assayed against T2, murine HER4 antigen (assay: ELISA, coated mu HER4).
Protocol: as §1
B1: no binding (tested: 40 nM). B2: no binding (tested: 40 nM). B3: no binding (tested: 40 nM). B4: no binding (tested: 40 nM). B5: no binding (tested: 40 nM). B6: no binding (tested: 40 nM).
